Molecular target: T1, recombinant FGF12 fused with the His-tag (UniProt P61328 1-243)
T1 chain: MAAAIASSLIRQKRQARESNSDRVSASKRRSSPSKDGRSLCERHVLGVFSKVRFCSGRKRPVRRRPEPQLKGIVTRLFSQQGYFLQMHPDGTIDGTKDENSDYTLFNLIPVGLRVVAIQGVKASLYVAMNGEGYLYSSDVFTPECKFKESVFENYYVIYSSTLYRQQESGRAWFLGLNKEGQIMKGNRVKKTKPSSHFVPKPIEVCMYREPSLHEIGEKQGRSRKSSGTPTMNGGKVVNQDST
Assay: SPR

B1: recombinant galectin-8 (natural protein)
chain: MMLSLNNLQNIIYNPVIPFVGTIPDQLDPGTLIVIRGHVPSDADRFQVDLQNGSSMKPRADVAFHFNPRFKRAGCIVCNTLINEKWGREEITYDTPFKREKSFEIVIMVLKDKFQVAVNGKHTLLYGHRIGPEKIDTLGIYGKVNIHSIGFSFSSDLQSTQASSLELTEISRENVPKSGTPQLRLPFAARLNTPMGPGRTVVVKGEVNANAKSFNVDLLAGKSKDIALHLNPRLNIKAFVRNSFLQESWGEEERNITSFPFSPGMYFEMIIYCDVREFKVAVNGVHSLEYKHRFKELSSIDTLEINGDIHLLEVRSW
Kd: 581 nM

— paper PMC10926643 (2024)
